From US20190161551A1 (Regeneron, published 2019) come the findings set out here.

For assay [1], the target named is T1, rat TrkB extracellular domain expressed with a C-terminal myc-myc-hexahistidine tag (rat, UniProt Q63604 32-429).
T1 construct: also called rTrkB.mmH; rTRKB.mmH
The assay is described as follows: blocking ELISA: constant rat TrkB.mmh (REGN1808) pre-mixed with antibody, binding to plate-coated BDNF; half-maximal enhancement of the signal, not blockade. How it is done:
(§1) Experiments were carried out using the following procedure. Human BDNF was coated at a concentration of 0.5 μg/mL (for blocking mouse TrkB.hFc interaction) or 0.3 μg/mL (for blocking rat TrkB.mmh interaction) in PBS on 96-well microtiter plate and incubated overnight at 4° C. […] In a 96-well dilution plate, 850 pM mouse TrkB.hFc or rat TrkB.mmh was mixed with the three-fold serially diluted anti-mouse TrkB antibodies and control antibody. The final antibody concentrations ranged from 1.69 pM to 100 nM. The protein-antibody mix was incubated at room temperature (RT) for 1 hour. The pre-bound mix was then transferred in duplicates to microtiter plates coated with BDNF. […] Plate-bound mouse TrkB.hFc was detected with HRP-conjugated goat anti-human Fcγ fragment specific antibody (Jackson Immunoresearch) and rat TrkB.mmh was detected with HRP-conjugated anti-histidine antibody (Qiagen). […]
(§2) The absorbance at 450 nm for each well was recorded and plotted as a function of the concentration of antibody. Data was analyzed in GraphPad Prism software using a four-parameter logistic equation over an 11-point dose response curve and IC₅₀ values were calculated. […] Percent blockade at maximum concentration of the antibody tested was calculated as an indicator of the ability of the antibodies to block the binding of TrkB to BDNF on the plate relative to the baseline of the assay. […]

The target in the next assay is T2, mouse TrkB.hFc (mouse).
T2 construct: also called mTrkB.hFc; mTrkB-hFc
The assay is described as follows: blocking ELISA: constant mouse TrkB.hFc (REGN2277) pre-mixed with antibody, binding to plate-coated BDNF. How it is done: as §1, §2

T1 sequence (Q63604 other isoform, or with tags, fused parts or gaps): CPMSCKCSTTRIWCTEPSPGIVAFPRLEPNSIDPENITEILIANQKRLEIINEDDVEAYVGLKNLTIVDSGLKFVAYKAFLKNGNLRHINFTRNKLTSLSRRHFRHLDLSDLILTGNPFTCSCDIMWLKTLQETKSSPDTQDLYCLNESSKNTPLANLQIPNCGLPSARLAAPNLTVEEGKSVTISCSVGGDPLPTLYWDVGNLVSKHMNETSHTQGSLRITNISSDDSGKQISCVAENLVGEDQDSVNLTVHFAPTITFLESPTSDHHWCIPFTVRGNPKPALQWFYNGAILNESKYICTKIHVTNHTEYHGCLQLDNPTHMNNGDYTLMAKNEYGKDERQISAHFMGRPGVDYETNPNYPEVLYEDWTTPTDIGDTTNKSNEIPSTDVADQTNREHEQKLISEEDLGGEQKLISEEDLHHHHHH
T2 sequence (chain, as listed by the source limits assumed): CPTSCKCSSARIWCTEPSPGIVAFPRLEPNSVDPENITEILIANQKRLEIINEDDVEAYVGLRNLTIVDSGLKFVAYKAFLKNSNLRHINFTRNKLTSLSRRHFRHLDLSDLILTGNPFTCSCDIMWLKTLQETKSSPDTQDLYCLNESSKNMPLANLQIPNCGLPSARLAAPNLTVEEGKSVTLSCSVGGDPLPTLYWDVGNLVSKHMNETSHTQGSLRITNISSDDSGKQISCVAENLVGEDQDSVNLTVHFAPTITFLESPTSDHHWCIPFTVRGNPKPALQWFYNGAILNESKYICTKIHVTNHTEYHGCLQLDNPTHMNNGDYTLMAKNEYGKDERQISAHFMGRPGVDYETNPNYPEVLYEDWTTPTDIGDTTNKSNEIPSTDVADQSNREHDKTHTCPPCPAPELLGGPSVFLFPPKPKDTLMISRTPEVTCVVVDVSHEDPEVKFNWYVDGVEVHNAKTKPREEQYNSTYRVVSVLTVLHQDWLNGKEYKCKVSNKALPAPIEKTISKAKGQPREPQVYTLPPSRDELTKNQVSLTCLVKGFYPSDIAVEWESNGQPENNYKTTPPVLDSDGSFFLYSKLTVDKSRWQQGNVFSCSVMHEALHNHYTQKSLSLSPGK

B1: M2aM14179N (antibody, mouse IgG2a, kappa, V domains shown)
VH: EVQLQQSGPELVKPGASVKISCKASGYTLTDYYMNWVKQSHGKSLEWIGDINPNNGGTSYNQKFKGKATLTVDKSSSTAYMELRSLTSEDSAVYYCARGAYYSNYFDYWGQGTTLTVSS
VL: DIVMSQSPSSLAVSAGEKVTMSCKSSQSLLNSRTRKNYLAWYQQKPGQSPKLLIYWASTRESGVPDRFTGSGSGTDFTLTISSVQAEDLAVYYCKQSYILFTFGSGTQLEIKR
notes: Anti-mouse TrkB antibody from hybridoma, mouse IgG2a Fc; also called surrogate anti-mouse TrkB antibody
As usually defined, the EC50 (read off the curve) is the concentration needed to bring the measured effect to its halfway point. In the case of B1, in assay [1], the “EC50 (read off the curve)” value was about 400 pM.

B2: M2aM14173N (antibody, mouse IgG2a, kappa, V domains shown)
VH: NVSLVESGGGSVKPGGSLQLSCAASGFTFSSSAMSWIRQTPEMRLEWVATISDRGSYTYYPDSVEGRFTISRDNAKNILYLQMSHLMSEDTAMYYCARGKGEKAYYTAFFAYWGQGSLVTVSA
VL: DIQMTQSPASLSASVGETVTITCRASENIYSYLAWYQQKPGKSPHLLVHNAETLAEGVPSRFSGSGSGPQFSLKINSLQPGDSGTYYCQHHYSSPWTFGGGTKLEIKR
notes: as for B1
Take B2: the “IC50 (read off the curve)” value with mouse TrkB.hFc was about 100 pM.
